Measured values taken from the nanobody polyreactivity screen of Harvey et al. (2022).

Experiment: yeast display, Sf9 membrane polyspecificity reagent, FACS + sequencing; frameworks hold sequencing errors
Summary of the method: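 Synthetic nanobody libraries on Saccharomyces cerevisiae BJ5465 were galactose-induced for 36–48 hours, stained 1 hour at 4 °C with 10% biotinylated, detergent-solubilized Sf9 membrane reagent and enriched on streptavidin microbeads. FACS then separated cells into low and high (top ~1%) gates by anti-HA (expression) and streptavidin (reagent binding) fluorescence. Genes were colony-PCR amplified, MiSeq 2 × 250 sequenced and CDR-length filtered. A clone's polyreactivity label is that of its gate of origin.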

Sequence	polyreactivity (PSR sort gate)
QVQLVESGGGLVQAGGSLRLSCAASGRIFWRNAMGWNRQAPGKERELVAAISSGGSTYYADSVKGRFTISRDNAKNTVYLQMNSLKPEDTAVYYCAARSSWRGGSYDHFERDYWGQGTQVTVSS	high polyreactivity
QVQLVESGGGLVQAGGSLRLSCAASGRIFWSYAMGWYRQAPGKERELVAAISYSGGGTYYADSVKGRFTISRDNAKNTVYLQMNSLKPEDTAVYYCAAETYYAPYDYWGQGTQVTVSS	high polyreactivity
QVQLVESGGGLVQAGGSLRLSCAASGRIFWTNAMGWYRQAPGKERELVAAISRSGGSTYYADSVKGRFTISRDNAKNTVYLQMNSLKPEDTAVYYCAARAGRRPYDYWGQGTQVTVSS	high polyreactivity
QVQLVESGGGLVQAGGSLRLSCAASGRIFWTNDMGWYRQAPGKERELVAVISSDTGSTDYADSVKGRFTISRDNAKNTVYLQMNSLKPEDTAVFYCNKRGLSRVNYWGQGTQVTVSS	low polyreactivity
QVQLVESGGGLVQAGGSLRLSCAASGRIFWTYAMGWYRPAPGKERELVAAITWRGGSTSYADSVKGRFTISRDNAKNTVYLQMNSLKPEDTAVYYCNARYSGYSPWGNDYWGQGTQVTVSS	high polyreactivity
QVQLVESGGGLVQAGGSLRLSCAASGRIFWVNAMGWYRQAPGKEREFVAAISWSGGSTYADSVKGRFTISRDNAKNTVYLQMNSLKPEDTAVYYCAADRYNGRYGYWGQGTQVTVSS	high polyreactivity
QVQLVESGGGLVQAGGSLRLSCAASGRIFWVNAMGWYRQAPGKERELVARIRGRSGSTYYADSVKGRFTISRDNAKNTVYLQMHSLKPEDTAVYYCNADFNRKVAGTPEVDYWGQGTQVTVSS	high polyreactivity
QVQLVESGGGLVQAGGSLRLSCAASGRIFWYNAMGWYRQAPAKERELVAGITRSGGRTYYADSVKGRFTISRDNAKNTVYLQMNSLKPEDTAVYYCAAAPYARRDYEYWGQGTQVTVSS	high polyreactivity
QVQLVESGGGLVQAGGSLRLSCAASGRIFWYNAMGWYRQAPGKERELVAVISTRGGRTYYADSVKGRFTISRDNAKNTVYLQMNSLKPEDTAVYYCAAEFLNKAVGGVTSIYDSWGQGTQVTVSS	low polyreactivity
QVQLVESGGGLVQAGGSLRLSCAASGRIFWYYAMGWYRQAPGKERELVAAINSGGNTNYADSVKGRFTISRDNAKNTVYLQMNSLKPEDTAVYYCNAGRRYDTYPGDYWGQGSQVTVSS	high polyreactivity
QVQLVESGGGLVQAGGSLRLSCAASGRIFWYYAMGWYRQAPGKERELVAAITRGGITTYADSVKGRYTISRDNAKNTVYLQMNSLKPEDTAVYYCNAVPWYGRMDYWGQGTQVTVSS	low polyreactivity
QVQLVESGGGLVQAGGSLRLSCAASGRIFWYYAMGWYRQAPGKERELVAAITRSGASTYYADSVKGRFTISRDNAKNTVYLQMNSLKREDTAVYYCAADTGRYRYVYEYYYWGLGTQVTVSS	high polyreactivity
QVQLVESGGGLVQAGGSLRLSCAASGRIFWYYAMGWYRQAPGKERELVARISSSGGSTYYADSVKGRFTISRDNAKNTVYLQMNSLKTDYTAVYFWAKERYSGSSRYPMDYWGQGTQVTVSS	high polyreactivity
QVQLVESGGGLVQAGGSLRLSCAASGRIFWYYAMGWYRQAPGKEWELVATITYSGVRTYYADSVKGRFTISRDNAKNTVYLQMNSLKPEDTAVYYCAAVPGASVYGYYWKFGYWGQGTQVTVSS	high polyreactivity
QVQLVESGGGLVQAGGSLRLSCAASGRIFWYYTMGWYRQAPGKERELVAAISNGGSTYYADSVKGRFTISRDNAKNTVYLQMNSLKPEDTAVYYCAAVGARGGYFRMDYWGQGTQVTVSS	high polyreactivity
QVQLVESGGGLVQAGGSLRLSCAASGRIFYANAMGWYRQAPGKERELVAAISSGGSTYYADSVKGRFTISRDNAKNTVYLQMNSLKPEDTAVYYCAALYWVYFYSEYGPWRYDYWGQGTQVTVSS	low polyreactivity
QVQLVESGGGLVQAGGSLRLSCAASGRIFYDNAMGWYRQAPGKERELVAAISYSGDSTYYADSVKGRFTISRDNAKNTVYVQMNSLKPEDTAVYYCAAVYISQGAFAYDYWGQGTQVTVSS	low polyreactivity
QVQLVESGGGLVQAGGSLRLSCAASGRIFYENAMGWYRQAPGKDRELVAAISGSGGSTYYADSVKGRFTISRDNAKNTVYLQMNSLKPEDTAVYYCNAYRRVPGYDYWGQGTQVTVSS	high polyreactivity
QVQLVESGGGLVQAGGSLRLSCAASGRIFYEYAMGWYRQAPGKDRELVAAISNSGGSTYYAHSVKGRFTISRDNAKNTVYLQMNSLQPEDTAVYYCAATVRLPNGVRYGYWGQGTQVTGSS	high polyreactivity
QVQLVESGGGLVQAGGSLRLSCAASGRIFYFNAKGGYRQAPGKERELVAAIRNDTRTYYADSVKGRFTISRDNAKNTVYLQLNSLKPEDTAVYYCAARVYFSVITPIKYNYWGQGTQVTVSS	high polyreactivity
QVQLVESGGGLVQAGGSLRLSCAASGRIFYFNAMGWYRQAPGKEREFVASINSIGDSTYYADSVKGRFTISRDYAKNTVYLQMNRLKPEDTAVYYCNADHGVINYRLDYWGQGTQVTVSS	low polyreactivity
QVQLVESGGGLVQAGGSLRLSCAASGRIFYFNAMGWYRQAPGKERELVAAISWSGSRTFYADSVTGRFTISRDNAKNTVYLQMNSLKPEDTAVYYCAVRGYMWNAGNTIRRDYWGQGTQVTVSS	high polyreactivity

Sequence	polyreactivity (PSR sort gate)
QVQLVESGGGLVQAGGSLRLSCAASGRIFYFYALGWYRQAPGKERDLVAAINIGGSTNYADSVKGRFTISRDNAKNTVYLQMNSLNPEDTAVYYCNAEAYSRSDYYRYDYWGQGTQVTVSS	low polyreactivity
QVQLVESGGGLVQAGGSLRLSCAASGRIFYFYAMGWYRQAPGKERELVAAITGSAGGTYYADSVKGRFTISRDNAKNTVYLQMNSLKPEDTAVYYCNAGSTRYWRSRYDYWGQGTQVTVSS	low polyreactivity
QVQLVESGGGLVQAGGSLRLSCAASGRIFYFYAMGWYRQAPGKERELVASISSGSSTNYADSVKGRFTISRDNAKNTVYLQMNSLKPEDTAVYYCAAQPWHGSRPRSYYWGQGTQVTVSS	high polyreactivity
QVQLVESGGGLVQAGGSLRLSCAASGRIFYFYAMGWYRQAPGKERELVASISYSGGNTYYADSVKGRFTISRDNAKNTVYLQMNSLKPEDNAVYYCNVLPNTGARGYYYWGQGTQVTVSS	low polyreactivity
QVQLVESGGGLVQAGGSLRLSCAASGRIFYGNTMGWYRQAPGKERELVAAITWRGGSTYYADSVKGRFTISRDNAKNTVYLQMNSLKPEVTAVYYCAAVSYRGRGYWGQGTQVTVSS	high polyreactivity
QVQLVESGGGLVQAGGSLRLSCAASGRIFYGYAIGWYRQAPGKEREFVARINVSGTSTFYADSVKGRFTISRDNAKNTVYLQMTSLKPEDTAVYDCAARGLPSNDYYYVHGYIMDYWGQGTQVTVSS	low polyreactivity
QVQLVESGGGLVQAGGSLRLSCAASGRIFYGYARGWYRQAPGKERELVATITWSGGSTYYADSVKGRFTISRDNAKNTVYLQMNSLNPEDTAVYYCAAYSPYIYQAYRYDYWGQGTQVTVSS	low polyreactivity
QVQLVESGGGLVQAGGSLRLSCAASGRIFYGYTMGWARQAPGKERQLVAAITWSGGSTYYADSVKGRFTISRDNAKYSVYLQMNSLKPKDTAVYYCAATLGNAADYDYGYWGQGTQVTVSS	high polyreactivity
QVQLVESGGGLVQAGGSLRLSCAASGRIFYGYTMGWYRQAPGKERELVASITIRGSRTYYADSVKGRFTISRDNAKNSVYLQMNSLKPEDTAVYYCAADFVPARTVHRYDYWGQGTQVTVSS	low polyreactivity
QVQLVESGGGLVQAGGSLRLSCAASGRIFYGYVMGWYRQAPGKETELVAAMTWSGSRTYYADSVKGRFTISRDNAKNTVYLQMNSLKPEDTAVYYCAARIPSDGYSYWGQVTQVTVSS	high polyreactivity
QVQLVESGGGLVQAGGSLRLSCAASGRIFYHNTMGWYRQAPGKEREFVAAISKRGGNTYYADSVKGRFTISRDNAKNTVYLQMNSLKPEDTAVYYCNRRNAWSRGEYWGQGTQVTVSS	high polyreactivity
QVQLVESGGGLVQAGGSLRLSCAASGRIFYKYVMGWDRQAPGKERELVADINRSGGTTYYADSVKGRFTISRDNAKNTVYLQMNSLKPEDTAVYYCTATLPDYWPYYYYQGGDDYWGQGTQVNVSS	low polyreactivity
QVQLVESGGGLVQAGGSLRLSCAASGRIFYLNAMGWYRQAPGKERELVAVITGNAGSTYYADSVKGRFTISRDNAKNTVYLQMNSLKPEDTAVYYCNALRLVPWSDALYDYWGQGTQVTVSS	low polyreactivity
QVQLVESGGGLVQAGGSLRLSCAASGRIFYLYAMGWYRQAPGKERELVAAISVSGARTYYADSVKGRFTISRDNAKNNVYLQMNSLKPEDTAVYYCATVGPYRSRRAGDYWGQGTQVTVSS	high polyreactivity
QVQLVESGGGLVQAGGSLRLSCAASGRIFYLYAMGWYRQAPGKERELVAAITWSGGSTTYADSVKGRFTISRDNAKNTVYLQMNSLKPEDTAVYYCNADGWIFPSFSPMDYWGQGTQVTVSS	low polyreactivity
QVQLVESGGGLVQAGGSLRLSCAASGRIFYLYAMGWYRQAPGKERELVATISGSGGSTYYADSVKGRFTISRDNAKNTVYLLMISLKPEDTAVYYCAAVSVSSWYDYWGQGTQVSVSS	low polyreactivity
QVQLVESGGGLVQAGGSLRLSCAASGRIFYLYAMGWYRQAPGTEREMVAAITWSGGSTTYADSVKGRFTISRDNAKNTVYLQMNSLKPEDTAVYYCYADGWIFPSFSPMDYWGQGTQVTVSS	low polyreactivity
QVQLVESGGGLVQAGGSLRLSCAASGRIFYLYARGWYRQAPGKERELVATISSSGGRTYYADSVKGRFTISRDNAKNTVYLQMNSLKPEDTAVYYCNAYGEDDGPYPFPGYNYWGQGTQVTVSS	low polyreactivity
QVQLVESGGGLVQAGGSLRLSCAASGRIFYNYAMGWYRQAPGKETELVAAISGSGGSTYYADSVKGRFTISRDNAKNTVYLLMNSLKPEDTAVYYCSTSGQQYYSRNFDYWGQGTQVTVSS	low polyreactivity
QVQLVESGGGLVQAGGSLRLSCAASGRIFYNYVMGWYRQAPGKERELVAAISSSGGSTYYADSVKGRFTISRDNAKNSVYLQMNSLKPEDTAVYYCSAETYQLTWVLYYYWGQGTQVTVSS	high polyreactivity
QVQLVESGGGLVQAGGSLRLSCAASGRIFYPNAMGWYRQAPGKERELVAGISRSGGSTYYADSVKGRFTISRDNAKNTVYLQMNSLKPEVTAVFYCAARYYASDRHFRGDYWGQGTQVTVSS	low polyreactivity
